Results reported in the supplement of paper PMC9170038.

Test system: K4 kissing-loop RNA reporter
Assay: apparent KD of K4 kissing-loop reporter; higher = weaker reporter binding
Conditions: Eterna round: R107; input ligand: FMN 200 uM
Protocol: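 RNA-MaP round R107: designed RNA switches with theophylline, tryptophan, arginine or FMN aptamers are transcribed on-chip within common flanks. They are titrated with a labelled K4 kissing-loop RNA reporter in RNA-MaP buffer (100 mM Tris pH 7.5, 80 mM KCl, 4 mM MgCl2), without ligand or with the indicated ligand. Median apparent KD per design.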
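Further: bound reporter read as fluorescence of individual clusters on recovered sequencing chips by microscopy, with normalized cluster intensities fitted with a binding model.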

First: CGCGCGCGUUUGAGAGGGCGCGCGCGAAGUGAGGAUAUUUAGGGAGAAAGAAGGCACUAUAAAAUAUAGUGAUGUUAUAUAAGGG [SSFMNA.F]
Second: AAAAUAAUCCAGUGAUGUUGGUAUGCAGAUACCAGCGACGAAAGUCGCCCUUGGCAGCUGUGGACGUACAAAAUAAGUACGUCCU
The “apparent KD of K4 kissing-loop reporter” value of the first is 1.5-fold lower: 603 nM for the first, 923 nM for the second.

Going from “UUGCAAGAGUCGGCCGCCACUCCGGGCCCUAUAAAUGGGCGCAGUGAUGUUGCGGCUAGGCCUCUGAGGACCGGGACUUUGUAGC [Ateusraor]” to “AGAGAUAUAUGAGGAUAUGGGUUAGUUAAUGAGUUAGUUUUAGUGUUGUUUGGUUAGUGAUGUUAUUUAGAAGGCGUGAGUGAUG [cqqbmullin]”, the “apparent KD of K4 kissing-loop reporter” value rises from 51 nM to 98.4 nM (1.9-fold).

Compared with “CAAACUCUGACGGCCGCCACUAAUCGUGUAACAGUGAUGUUGUUACAUCAAAGAUGGGUUGCGUGUAGGACCGGGUCGACGCAAA [theeternabot_exclusion_KL_Trp_B_48]”, “UGCUUAAUGGAAGGAUAUUAGGGUUCGACCGCGUAUCAUUGUUAGUCUGGCCAGUGAUGUUGGCCUUAAGAAGGUCCGCUACGGU [theeternabot_exclusion_KL_FMN_B_27]” is 1.6-fold higher in “apparent KD of K4 kissing-loop reporter” value: 131 nM for the first, 207 nM for the second.

Compared with “GUUACGCAUGGAAGGAGCGCUCUCCGGUUGAUUGACACAGUGAUGUUGUGAUUCUACCGUAAGCAGGUAGGUCGCCAUGUGUAAC [Ex Arginine B K4 13]”, “UUCGAAAGUCGAAGGAGCGCUGGCGGUCAUAGACUAUAUCUGUAGUGAUGUUACAGAUUCCAGCAGGUAGGUCGCGACAGAGACA [Arg B SS t18b]” is 7.7-fold lower in “apparent KD of K4 kissing-loop reporter” value: 950 nM for the first, 124 nM for the second.

“AGUGGUGUAUCUUUUAAGAGUGAUGUUUUUCGAGGACCGGUACGGCCGCCACUCGAGUGAUGAGUGCGUCGUUGUGGUGAUUAGU [#14 K4 Tryptophan A Exclusion]” and “UGUCAUUGGUCUGAUACCAGUUGAUGACGAAUACGUCAACUGGAGUGAUGUUCCUAAAACAACCCUUGGCAGCAGACCGAUGACU [TheoBS 1 #SwitchBubble #StaticStem]” are within 1.5-fold of each other in “apparent KD of K4 kissing-loop reporter” value: 816 nM for the first, 788 nM for the second.

Going from “GGCAUGCGUAGAGUGAUGUUCUAAGAUGAUACCAGUGCGGAAACGCACCCUUGGCAGCAUCUGACUGGCAUGCCGGCGAAAGCCU” to “GGAGAGGUCUUGUUUGGAUGUGUUUAAUGGCGAGGACCGGUACGGCCGCCACUCGGGUGAUGUUAGUGAUGUUGAUGUUGUGAUG ['oo'mullin]”, the “apparent KD of K4 kissing-loop reporter” value falls from 871 nM to 137 nM (6.4-fold).

Compared with “ACGGAGUGAUGUUCCGGCCUCCCAGCAGAUACCAGCAGUCGCGAUUGCCCUUGGCAGCUGUCCGCGGCAUCCACUUGUAGCGGUA [theeternabot_exclusion_KL_Theo_A_12]”, “CCUAUCUCAUACGAUACCAGUGAAUUAAUAUUUAUAAGCAGUGAUGUUGCAUUCCAAGUACACCCUUGGCAGCGUAUGGGAUAGG [Ex Theophylline B K4 20]” is 1.5-fold lower in “apparent KD of K4 kissing-loop reporter” value: 223 nM for the first, 147 nM for the second.

First: UAUAUACAUUUAUUAAUUAAAGGUUCAGAAGGAGCGUGAAUUAACACAGGUAGGUCGCUGAGCGAGUGAUGUUCGCUAUAUGGUA [JR_ExcArginiA_Sub005]
Second: UGACUGGACUGAAGGAGCGCUAAACUCCUAGUGAUGUUAGGAAAACGAGACAAAGUCUCGAGGCAGGUAGGUCGCAGUCUAGUCU [ArgBS 18 #SwitchBubble #StaticStem]
The “apparent KD of K4 kissing-loop reporter” value of the first is 1.9-fold lower: 66.3 nM for the first, 123 nM for the second.

Compared with “UCCAAUAUUUAUUGAUCCGCCUCGCAUCAACGAGGACCGGUACGGCCGCCACUCGUGCCUAGGUAGUGAUGUUACUUAGUUUACU [theeternabot_sameState_KL_Trp_A_32]”, “GCGUUAGUACUCGAUACCAGACCUCUAGUAGUGAUGUUGCUUGGCGAAGGCCUCGAACGAGUCCCUUGGCAGCGAGGAAAGAGGA [theeternabot_sameState_KL_Theo_B_4]” is 5.4-fold higher in “apparent KD of K4 kissing-loop reporter” value: 93.2 nM for the first, 506 nM for the second.

Compared with “CAUAUACAAGUGAUGUUUGUACUAACCGAAGGAGCGUCGUUGAAGACAGGUAGGUCGCGGUUUAAGUUAGAUUAUAUAAUUCCAC [JR_Nu_SSArginiA_Sub027]”, “AGCUGUGGCAGAAGGAGCGACAGUUAUUCUGAUAGUACUCUGAGUGAUGUUCAGAACGACUGUCAGGUAGGUCGCUGUCACAGCU [#01 K4 Arginine B Exclusion]” is 4.1-fold lower in “apparent KD of K4 kissing-loop reporter” value: 705 nM for the first, 172 nM for the second.

Going from “CACCAUGAAUUCUCUAGGAGUGAUGUUUUUCGAGGACCGGUACGGCCGCCACUCGGACCAGGAACGUGGGAGCGGCGAAAAGACU [ttmullin]” to “GUUUCAGUGAUGUUGGAAGGCGAGCGGGAUACCAGCCAAGACUCAGGCCCUUGGCAGCCCACAUAUCCCACGUAGAUAGUAGCUC [Same State - Theophylline A (Freestyle 14)]”, the “apparent KD of K4 kissing-loop reporter” value falls from 656 nM to 161 nM (4.1-fold).

Compared with “GUGUAGAAGUGAGGAUAUCGAUUUAAGAAUAAGCAGUGAUGUUGCAAGCAGGAGGAAUAAGAUUAACGAGAAGGCGUGGAUAUAG [FMN B Exclusion; Euphoria Solution]”, “AACCGCCAGUCGGCCGCCACUCACAGCAGUGAUGUUGCUGAAAAUCUAAAAGAGUGAUGUUCUUAGAGGACCGGGACUCCAGGCG [Same State Tryptophan B GF 5]” is 2.5-fold higher in “apparent KD of K4 kissing-loop reporter” value: 104 nM for the first, 260 nM for the second.

First: AGCUCAGAGUGACUCGAUAAGAGUCACAAACGAGGACCGGUACGGCCGCCACUCGAAAUAAUGGGAGUGAUGUUCUCACUGAGCA [#SwitchBubble 3 #StaticStem #K4Late]
Second: CGCUCGAAAAUUAAGUGAGUGAUGUUCACUCGAGGACCGGUACGGCCGCCACUCGUCUUACGUUGAGACACUGCUCGUACUCAUA [theeternabot_exclusion_KL_Trp_A_38]
The “apparent KD of K4 kissing-loop reporter” value of the first is 1.5-fold higher: 1030 nM for the first, 683 nM for the second.

“GAAGGUCAAAGACCUUCGUGCACACCUGAUACCAGUCGCGAAAGCGACCCUUGGCAGCAGGGCAGUGAUGUUGCCAGUGCACAAA [Omei KL Theo A SS A v5]” and “ACAUCGGUUGAGAGUGAUGUUCCUUGUGUUCGAGGACCGGUACGGCCGCCACUCGGGUAGAAAAUAACAGAUGUGUUUCCUUUUU [BDazzled - #18 SS Tryptophan A]” are within 1.5-fold of each other in “apparent KD of K4 kissing-loop reporter” value: 194 nM for the first, 164 nM for the second.

First: AUAUAGAGUGAUGUUCAUGAGUAUUUCGAAGGAGCGCUAAAUAAGGCAGGUAGGUCGCGGAAAAUAUAUAUAUAGAUAUAUAUAU [KL-SSArg-A29]
Second: GCAGGACGAGGAGGAGGAUGAAUUACUGAAGGAGCGCAUAUUUUUGCAGGUAGGUCGCGGUAAAGAAGUAUAGUGAUGUUAUAUA [SSArgA.L]
The “apparent KD of K4 kissing-loop reporter” value of the first is 2.9-fold lower: 168 nM for the first, 482 nM for the second.

“UUCGAUCAGUGAUGUUGAUCAAUAGUCGAAGGAGCGCUAUAGAUAGCAGGUAGGUCGCGGCUACAGGGUGUUAAGACACCCAGAA [#13 K4 Arginine A Same State]” and “CCAUUCUGUUACGAUACCAGUCAAAUAUAUUUGAUCAAUACCCUCGCCGAGUGAUGUUCGGACCCUUGGCAGCGUCUGGGACAGG [ccdfmullin]” are within 1.5-fold of each other in “apparent KD of K4 kissing-loop reporter” value: 534 nM for the first, 537 nM for the second.

Going from “CCCUCACGAGUGAUGUUCGUAGGGUACAGUCAGGAUAUCAUGCGGUUGAGAAGGGACAGAAAGGGCGGCCACGGGUUGCUCAUUU [Issogeso]” to “UCGGCAGUGAACGAUACCAGCGUCACGUGGCUGGUGGUCACAUGAGUGAUGUUCAUGUAACGCCCUUGGCAGCGUGCGCGUACCG [KL-XTheo-B11]”, the “apparent KD of K4 kissing-loop reporter” value falls from 200 nM to 113 nM (1.8-fold).

“UGAUACCAGACGGCCGCCACUCCCGUAAGUCAAAGACUUACGAAGAGAGUUAUCCAGUGAUGUUGGAGGACCGGGUCUGGUAUCU [FiskerMod 14 - Jieux - Exclusion - Tryptophan B]” and “CCGAGCCUGACGUAAGUCAGGCUCUGCGAGCGAGGACCGGUACGGCCGCCACUCGGUGCAGUGAUGUUGCAUGGCCGCAAGGCCG [#2 Exclusion - Tryptophan A Attempt #23 (HarryS)]” are within 1.5-fold of each other in “apparent KD of K4 kissing-loop reporter” value: 210 nM for the first, 293 nM for the second.

Going from “UAGUCCUAGUGAUGGUCAUCACGUGGCGGGCGAGGACCGGUACGGCCGCCACUCGACUUUGCAGUGAUGUUGCAAACCGGACAAU [Exclusion - Tryptophan A (Freestyle 20)]” to “CGCCGCAAGGCGAGCGCUCCCACUCCGGAAGGAGCGCCCGUAAGGGCAGGUAGGUCGCCGGAGUGAUGUUCCGGUGGAGGGCUCG [#2 Exclusion - Arginine A Attempt #14 (Inspired by Omei)]”, the “apparent KD of K4 kissing-loop reporter” value rises from 144 nM to 226 nM (1.6-fold).

Compared with “UGAUACCAGACGGCCGCCACUGCACCAGUCAAUGACUGAGCGCGGUGGCGCUCAGUGAUGUUGAGCAGGACCGGGUCUGGUAUCU [Mod of Eli's TrypBX 8 v4]”, “CGCGCGCGCUUGAGAGGGCGCGCGCGAAGUGAGGAUAUUUAGGGAGAAAGAAGGCACUAUAAAAUAUAGUGAUGUUAUAUAAGGG [SSFMNA.E]” is 8-fold higher in “apparent KD of K4 kissing-loop reporter” value: 147 nM for the first, 1180 nM for the second.

“UUGUUUGGUUGAGAGGUUGGGCGAGAUGAUACCAGUAUAGUAUUGUACCCUUGGCAGCAUAGGAGAGAUAUAGUGAUGUUGUAUG [SSTheophA.W]” and “AAGCAGUCACUCAAAGCCAUCGAAGAUGGACGAGGACCGGUACGGCCGCCACUCGGAGUGAUGUUCCGAAGACUGCAAAAUAAAA” are within 1.5-fold of each other in “apparent KD of K4 kissing-loop reporter” value: 419 nM for the first, 408 nM for the second.

Same assay, conditions: Eterna round: R107; input ligand: arginine 13.2 mM

Going from “CGCGCGCGUUUGAGAGGGCGCGCGCGAAGUGAGGAUAUUUAGGGAGAAAGAAGGCACUAUAAAAUAUAGUGAUGUUAUAUAAGGG [SSFMNA.F]” to “AAAAUAAUCCAGUGAUGUUGGUAUGCAGAUACCAGCGACGAAAGUCGCCCUUGGCAGCUGUGGACGUACAAAAUAAGUACGUCCU”, the “apparent KD of K4 kissing-loop reporter” value rises from 111 nM to 491 nM (4.4-fold).

“UUGCAAGAGUCGGCCGCCACUCCGGGCCCUAUAAAUGGGCGCAGUGAUGUUGCGGCUAGGCCUCUGAGGACCGGGACUUUGUAGC [Ateusraor]” and “AGAGAUAUAUGAGGAUAUGGGUUAGUUAAUGAGUUAGUUUUAGUGUUGUUUGGUUAGUGAUGUUAUUUAGAAGGCGUGAGUGAUG [cqqbmullin]” are within 1.5-fold of each other in “apparent KD of K4 kissing-loop reporter” value: 55.4 nM for the first, 60.8 nM for the second.

Going from “CAAACUCUGACGGCCGCCACUAAUCGUGUAACAGUGAUGUUGUUACAUCAAAGAUGGGUUGCGUGUAGGACCGGGUCGACGCAAA [theeternabot_exclusion_KL_Trp_B_48]” to “UGCUUAAUGGAAGGAUAUUAGGGUUCGACCGCGUAUCAUUGUUAGUCUGGCCAGUGAUGUUGGCCUUAAGAAGGUCCGCUACGGU [theeternabot_exclusion_KL_FMN_B_27]”, the “apparent KD of K4 kissing-loop reporter” value rises from 120 nM to 201 nM (1.7-fold).

Going from “GUUACGCAUGGAAGGAGCGCUCUCCGGUUGAUUGACACAGUGAUGUUGUGAUUCUACCGUAAGCAGGUAGGUCGCCAUGUGUAAC [Ex Arginine B K4 13]” to “UUCGAAAGUCGAAGGAGCGCUGGCGGUCAUAGACUAUAUCUGUAGUGAUGUUACAGAUUCCAGCAGGUAGGUCGCGACAGAGACA [Arg B SS t18b]”, the “apparent KD of K4 kissing-loop reporter” value falls from 809 nM to 88.4 nM (9.2-fold).

“AGUGGUGUAUCUUUUAAGAGUGAUGUUUUUCGAGGACCGGUACGGCCGCCACUCGAGUGAUGAGUGCGUCGUUGUGGUGAUUAGU [#14 K4 Tryptophan A Exclusion]” and “UGUCAUUGGUCUGAUACCAGUUGAUGACGAAUACGUCAACUGGAGUGAUGUUCCUAAAACAACCCUUGGCAGCAGACCGAUGACU [TheoBS 1 #SwitchBubble #StaticStem]” are within 1.5-fold of each other in “apparent KD of K4 kissing-loop reporter” value: 530 nM for the first, 511 nM for the second.
